Measured values taken from US20220144890.

How the values were obtained:
[1] = molecular target: H2 peptide derived from GBR
[2] = molecular target: H2 peptide derived from MAP1LC3B
[3] = molecular target: H2 peptide derived from MAP1LC3C
[4] = molecular target: T1, H2 α-helical peptide derived from GBRL2 (GABARAPL2 alpha-helix 2 domain)
T1 chain: VAQFMWIIRKR

B1: recombinant ATG4B (protein)
chain: MDAATLTYDTLRFAEFEDFPETSEPVWILGRKYSIFTEKDEILSDVASRLWFTYRKNFPAIGGTGPTSDTGWGCMLRCGQMIFAQALVCRHLGRDWRWTQRKRQPDSYFSVLNAFIDRKDSYYSIHQIAQMGVGEGKSIGQWYGPNTVAQVLKKLAVFDTWSSLAVHIAMDNTVVMEEIRRLCRTSVPCAGATAFPADSDRHCNGFPAGAEVTNRPSPWRPLVLLIPLRLGLTDINEAYVETLKHCFMMPQSLGVIGGKPNSAHYFIGYVGEELIYLDPHTTQPAVEPTDGCFIPDESFHCQHPPCRMSIAELDPSIAVGFFCKTEDDFNDWCQQVKKLSLLGGALPMFELVELQPSHLACPDVLNLSLDSSDVERLERFFDSEDEDFEILSL
ATG4B cleavage of chimeric Myc-GBRL2-S-tag substrate (blot) [1]: inhibited ATG4B cleavage activity in dose dependent manner
ATG4B cleavage of chimeric Myc-GBRL2-S-tag substrate (blot) [2]: inhibited ATG4B cleavage activity in dose dependent manner, while H2 peptides derived from MAP1LC3B and GBRL2 had the strongest inhibition on ATG4B
ATG4B cleavage of chimeric Myc-GBRL2-S-tag substrate (blot) [3]: inhibited ATG4B cleavage activity in dose dependent manner
ATG4B cleavage of chimeric Myc-GBRL2-S-tag substrate (blot) [4]: inhibited ATG4B cleavage activity in dose dependent manner, while H2 peptides derived from MAP1LC3B and GBRL2 had the strongest inhibition on ATG4B
